Test results: patent publication US20240254231A1 (published 2024)
Residue numbers refer to the chain shown, from its start. Values belong to the binder of their own block, whether it stands above or below them.

How the values were obtained:
[1] = target: T1, canine PD-1, full-length, membrane-embedded; test: flow cytometry; apparent Kd of cell binding
T1 chain: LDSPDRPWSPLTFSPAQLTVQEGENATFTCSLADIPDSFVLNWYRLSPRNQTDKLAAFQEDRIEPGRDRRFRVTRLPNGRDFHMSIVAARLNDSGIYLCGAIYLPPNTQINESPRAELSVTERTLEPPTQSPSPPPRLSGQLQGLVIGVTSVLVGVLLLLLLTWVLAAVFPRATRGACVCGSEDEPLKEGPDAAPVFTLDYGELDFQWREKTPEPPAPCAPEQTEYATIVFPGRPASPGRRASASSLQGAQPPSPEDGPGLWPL

[2] = target: T2, canine PD-1 ECD-mFc; test: SPR; avid
T2 chain: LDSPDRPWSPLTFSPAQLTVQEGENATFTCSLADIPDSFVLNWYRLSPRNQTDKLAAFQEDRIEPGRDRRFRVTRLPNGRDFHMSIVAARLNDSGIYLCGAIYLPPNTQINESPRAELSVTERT

[3] = target: T3, canine PD-1 ECD-6His; test: SPR; monovalent binding
T3 chain: T2 chain

[4] = target: PMX-145; test: flow cytometry; apparent Kd of cell binding
[5] = target: PMX-149; test: flow cytometry; apparent Kd of cell binding
[6] = target: PMX-150; test: flow cytometry; apparent Kd of cell binding
[7] = target: PMX-147; test: flow cytometry; apparent Kd of cell binding

B1: PMX125 (antibody, V domains shown)
VH: EVQLVESGGDLVKPGGSLRLSCVASGFSFSRYHMSWVRQAPGKGLQWVAYIISGGITTSYADAVKGRFTISRDNAKNTLFLQMNSLRAEDTAVYYCATYGSYFFDKWGQGTLVTVSS
VL: DIVMTQTPLSLSVSPGETASISCKASQSLLHSDGKSYLNWFRQKPGQSPQRLIYRVSNRDPGVPDRFSGSGSGTDFTLRISRVEADDTGLYYCGQVIQDPTFGAGTKVELK
- Kd [1]: 1.07 nM
- Kd [2]: 0.0348 nM
- Kd [3]: 7.7 nM

B2: PMX127 (antibody, V domains shown)
VH: B1 VH with I52V, T57S, K106T
VL: B1 VL with S22F
- Kd [1]: 0.86 nM
- Kd [2]: 0.0024 nM
- Kd [3]: 2.2 nM

B3: PD-1 (receptor)
chain: T1 chain
- Kd [4]: 5.75 nM
- Kd [5]: 8.23 nM
- Kd [6]: 6.83 nM
- Kd [7]: 2.65 nM

B4: PMX126 (antibody, V domains shown)
VH: EVQLVESGGDLVKPAGSLRLSCLASGFTFSSYSMSWVRQAPEKGLQSVAGINSDGDRTYYTDAVKGRFTISRDNAKSTVYLQMNSLRAEDTAMYYCVRGFSSFNAFGYWGQGTLVTVSS
VL: DIVMTQTPLSLSVSPGETASISCKASQSLLHSDGNTYLSWFRQKPGQSPHRLIYAVSHRHPGVPDRFSGSGSGTDFTLRISRVEADDAGLYYCGQVIQDPWTFGAGTKVELK
- Kd [1]: 1.05 nM
- Kd [2]: 0.0297 nM
- Kd [3]: 6.8 nM

Results, then the binder that gave them:

- Kd [2]: 0.0318 nM
- Kd [3]: 24.2 nM
B5: PMX152 (antibody, V domains shown)
VH: EVQLVESGGDLVKPGGSLRLSCVASGFTFSRYYMNWVRQAPGKGPQWVAYINNAGSDRNYVDAVKGRFTISRDNAKNTLYLQMNSLRAEDTAVYYCASEIRGVVVVGHLDYWGQGTLVTVSS
VL: SYVLTQLPSKSVTLNQPAHITCGGDNIGSKSVHWYQQKLGQAPVLIIYYDSIRPTGIPERFSGATSGNTATLTISGALAEDEADYYCQVWDSSAKAWVFGEGTQLTVL

- Kd [1]: 2.97 nM
- Kd [2]: 0.0322 nM
- Kd [3]: 1.7 nM
B6: PMX151 (antibody, V domains shown)
VH: EVQLVESGGDLVKSGGSLRLSCVASGFTFNTYSMNWVRQAPGKGLQWVARIKSSGSSTTYADAVKGRFTVSRDIAKNTLFLQMNSLRAEDTALYYCASEPGARYEIYFVESFFDYWGQGTLVTVSS
VL: B5 VL with N15K, I52S, T65N, K95Q, V98I
